B1: PHD2 and PHD3 fingers of human MLL4 (aa 227-324) [human] / ASXL2 peptide (residues 650-670 of ASXL2) [human] (parent complex)
chain 1: ARCAVCEGPGELCDLFFCTSCGHHYHGACLDTALTARKRAGWQCPECKVCQACRKPGNDSKMLVCETCDKGYHTFCLKPPMEELPAHSWKCKACRVCR
chain 2: NRTGARTLADIKAKAQLVKAQ

For orientation: Kd means the free concentration of one partner at which half of the binding sites on the other are occupied at equilibrium, for simple one-to-one binding.

The first experiment covers variants of B1. Nature of the experiment: fluorescence spectroscopy.
In the case of chain 2 R6I, the Kd came out at 11 µM.

The variants in another experiment derive from B1. Nature of the experiment: fluorescence spectroscopy. This is another data set of the same source.
Take chain 1 E66K: the Kd came out at 10 µM.

Source of the values: PMC11161652, “ASXLs binding to the PHD2/3 fingers of MLL4 provides a mechanism for the recruitment of BAP1 to active enhancers” (Nature Communications, 2024).
